# Assay results taken from the nanobody polyreactivity screen of Harvey et al. (2022).
# Assay: yeast display, Sf9 membrane polyspecificity reagent, FACS + sequencing; frameworks hold sequencing errors
# Summary of the method: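 Polyreactivity labels are assigned by the sorting gate from which each nanobody was recovered. The gates were low and high (top ~1%), set on anti-HA fluorescence for expression and streptavidin fluorescence for reagent binding. Before sorting, galactose-induced (36–48 hours) yeast display cells were stained for 1 hour at 4 °C with 10% biotinylated, detergent-solubilized Sf9 membrane reagent.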
row,Sequence,polyreactivity (PSR sort gate)
1,QVQIVESGGGLVQAGGSLRLRCADSGRIFVRYAMGGYIQSPGKDRELVAGITSGSRTNYADSVKGRFTISRDNAKNTVYLQMNSLKPEDTAVYYCAKRYLRYSRLGNYWGQGTQVTVSS,high polyreactivity
2,QVQLVESGGGLVQAGGSLRLSCAASGITFVLNARGWYRQAPGKERELVARISWSTGSTYYADSVKGRFTISRDNAKNTVYLQMNSLKPEDTAVYYCAVDYNYQSLYVVVEGEYWGQGTQVTVSS,low polyreactivity
3,QVQLVESGGGLVQAGGSLRLSCAASGSTFAVNAMGWYRQAPGKERELVAAITGSGGSTYYADSVKGRFTISRDNAKNTVYLQMNSLKPEDTAVYYCAAYRRYGYYYWGQGTQVTVSS,low polyreactivity
4,QVQLVESGGGLVQAGGSLRLSCAASGNIFYYNAMGGNRQAPGKERELVAAITTGGSTNYADSVKGRFTISRDNAKNTVYLQMNSLTPEDTAVYDCAADFIRYINRLLYDYWGQGTQVTVSS,low polyreactivity
5,QVQLVESGGGLFQAGGSLRLSCAASGSTFYRYTMGWYRQAPGKERELVASISRSGGSTYYADSVKGRFTISRDNAKNTVYLQMNSLKPEDTAVYYCAAKAQGKYYQYNYWGQGTQVTVSS,high polyreactivity
6,QVQLVESGGGLVQAGGSLRLSCAASGRIFRRNAMGWSRQAPGNERELVAAISSSGGRTYYADSVKGRFTISRDNAKNTVYLEMNSLKPEDTAVYYCAARIRTVAHVDYDYWGQGTQVTVSS,high polyreactivity
7,QVQLVESGGGLVQAGGSLRLSCAASVRLFRGYAMGWYRQAPGKERELVAGITSGGSTKYADSVKGRFTISRDNAKNTVYLQMNSLKPEDTAVYDCAKGYLAYSYYARPYIRYYWGQGTQVTVSS,high polyreactivity
8,QVQLVESGGGLVQAGGSLRLSCAASGSTFVYNDMGWNRQAPGKEREFVAAITYSGSTYYADSVKGRFTISRDNAKNTVYLQMNSLKPEDTAVYYCAAEYVWRFEYWGQGTQVTVSS,low polyreactivity
9,QVQLVESGGGLVQAGGSLRLSCAASGSIFFPNPLGWYRQAPGKERELVDAISWSGDSSYADSVKGRFTISRDNAKNTVYLQMNSLKPEDTAVYYCAAVYLWWSYEFDYWGQGTQVTVSS,low polyreactivity
10,QVQLVESGGGLVQAGGSLRLSCAASGRIFKSYAMGWYRQAPGKERELVASISYTGGSTYYADSVKGRFTISRDNAKNTVYLQMNSLKPEDTAVYYCAAKRVRSAGSYGYWGQGTQVTVSS,low polyreactivity
11,QVQVVESGGGLVQAGGSLRLSCAASGSISSWYALGWYRPAAGYERELVADISSGVNTYYADSVKGRFTISRDNAKNTVYLQMNSLKTEDTAVYYCNAESLTFADPFYNYTYDYWGQGTQVTVSS,low polyreactivity
12,QVQLVESGGGLVQAGGSLRLSCAASGRTFYKYAMGWYRQAPGKERELVAAINRIGGRTYYADSVKGRFTISRDNAKNTVYLQMNSLKPEDTAVYYCAAEFVGDNRHGYWGQGTQVTVSS,high polyreactivity
13,QVQLVESGGGLVQAGGSLRLSWAASGRIFGRYAMGWYRQAPGKERELVAAISYSGGSTYYADSVKGRFTISRDNAKNTVYLQMNSLKPEDTAVFYCNRYPTYGRTSYVTYYYWGQGTQVTVSS,high polyreactivity
14,LVQLVESGGGLVQAGGSLRLSCAASGSTFDGYAMGWYRQAPGKERELVAAIAYSGSSTYYADSVTGRFTISRDNSKNTVYIQMNSQKQEDTAVYYCAVDDTHPFGPDGGGDYWGQGTQVTVSS,low polyreactivity
15,QVQLVESGGGLVQEGGSLRLSCAASGFIFSFYVMGWYRQAPGKERELVAAISTSGASTYYADSVKGRFTISRDNAKNTVYLQMNSLKQEDTAVYYCNVVYRYGGYIYWGQGTQVTVSS,high polyreactivity
16,QVQLVESGGGLVQAGGSLRLSCAASGSTFIPNAMGWYSQAPGKERELVAAISTGGSTNYADSVKGRFTISRDNAKNTVYLQMNSLKPEDTAVYYCNARRGYYNPGRRFYYWGQGTQVTVSS,low polyreactivity
17,QVQLVESGGGLVQAGGSLRLSCADSGSIFRYNAMGWSRQAPGKERELVAAISGSGGSTYYADSVKGRFTISRDNAKNTVYLQRNSLKPEDTAVYYCNTRVYHYHYSYYPGGYWGQGTQVTVSS,high polyreactivity
18,QVQLVESGGGLVQAGGSLRLSCAASGFTFYRYTMGWYRPARGKESELVARITYSGGSTYYADSVKGRFTISRDNAKNTVYLQLNSVKPVDTAVYYCNARSDFYSRYGYKYDYWGQGTQVTVSS,high polyreactivity
19,QVQLVDSGGGLVQAGGSLRLSCAASGSIIFYNAMGWYRQAPGKERELVAAISRGGNTNYADSVKGRFTISRDNAKNNFYLQMNSLKSEDTAVYYCNADLVQYWGRRRWYDYWGQGTQVTVSS,low polyreactivity
20,QVQLVDSGGGLVQAGGILRLSCAASGSIFSSYAMGWYRQAPGKERELVAAITSGGSTYYADSVKGRFTISRDNAKITVYLQMNSLKREDTAVYYCAAYLSYFGYDYWGQGTQVTVSS,low polyreactivity
21,QVQLVESGGGLVQAGGSLRLSCAASGRIFSGYAMGSYRQAPGKERELVAAITSVGSTNYADSVKGLFTISRDNAKNTVYLQMNSLKPEDTAVFNCAAKRYRPKYEYYYWGLGTQVTVSS,high polyreactivity
22,QVHLVESGGGLVQPGGSLRLSCAASGNTFQSYARGWYRQAPRKEREFVAAIRQSGGSTYYAESLKGRFTISRDNSKYSVYLLMKRLKPEDTAVYYCGTGRSRVYNGRGDYWGQGTQVNVSS,high polyreactivity
23,QVQLVESGGGLVQPGGSLSLSCAASGFTFTYYAMGWYRQAPGKEMELVAAISWSGDSTYYADSVKGRFTISRDNAKNNVYLQMNSLKPEDSAVYYCGSEYSHTYDYWGQGTLVTVSS,low polyreactivity
24,QVQLVESGGGLVQAGGSLRLSCAASGRIFDRNAMGWYRQAPGKERELVAAISSRGTSTYYADSVKGRFTISRDNAKNTVYLQMNSLKPEDTAVYYCAARPRYASDEFGYWGQGTQVTVSS,low polyreactivity
25,QVQLVESGGGLVQAGGSLRLSCAASGSTFRYYAMGWYRQAPGKERELVAAISSAGTTYYADSVKGRFTISRDNAKNTVYLQMNSLNPEETAVYYCAAKYSYYTYAGDGGLFSWSYGYWGQGTQVTVSS,low polyreactivity
26,QVQHVESGGGLVQAGGSLRLSCAASGSTLGGYAMGWYRQAPGKERELVAAIRWRDGRTYYADSVKGRFTISRDNPKNTVYLQMNSLKPEDTAVYYCAAQYYLARVSFDYWGQGTQVTVSS,high polyreactivity
27,QDQLVESGGGLVQAGGSLRLSCAASGRTFPGYAMGWYRQAPGKERELVATSTVSDGSTYYADSVKGRFTISRDNAMNTVYLHMNSLIAEDTAVYYCAKDGGRKRSYSDFDYWRQGTQVTVSS,low polyreactivity
28,QVQLVESGGGLVQAGGSLRLSCAASGFIFGYNAMGWYRQAPGKERELVAAITSRGDRTYYADSVKGRFTISRDNAKNTVYLQMNSLKPEDTAVYYCAKATRGYRSPYGSIGYYYWGQGTQVTVSS,high polyreactivity
29,QVQLVESGGGLVQAGGSLRLSCAASGSIFDVNAMGWYRQAPGKERELVAAISDSGGSTYYADSVKGRFTISRDNAKNTVYLQMNSLKPEDTAVYYCNADWYWYNYYDFDYWGQGTQVTVSS,low polyreactivity
30,QVQLVESGGGLVQAGGSLRLSCAASGSTFSSYAMGRYRQAPGKERELVAVITRGTSTNYADSVKGRFTISRDNAKNTVYLQMNSLKPEDTAVYYCNARRGSRRFGYWGQGTQVNVSS,high polyreactivity
